Reference: FireProtDB (doi:10.1016/j.bpc.2008.09.020)

Details: Pseudomonas aeruginosa (strain ATCC 15692 / DSM 22644 / CIP 104116 / JCM 14847 / LMG 12228 / 1C / PRS 101 / PAO1), 25 °C, GdnHCl, CD, Sodium acetate 20 mM, whole UniProt chain shown

B1: Cytochrome c-551 wild type, P00099 (protein)
chain: MKPYALLSLLATGTLLAQGAWAEDPEVLFKNKGCVACHAIDTKMVGPAYKDVAAKFAGQAGAEAELAQRIKNGSQGVWGPIPMPPNAVSDDEAQTLAKWVLSQK
With B1 the denaturant m value (pH 3.6) was 2.88 kcal/mol/M, the “denaturant midpoint (higher = more stable)” value (pH 3.6) was 1.44 M and the unfolding free energy (pH 3.6) was 4.14 kcal/mol. The denaturant m value (pH 5) was 2.64 kcal/mol/M, the “denaturant midpoint (higher = more stable)” value (pH 5) was 2.06 M and the unfolding free energy (pH 5) was 5.44 kcal/mol.
